T1: GST-N protein (MHV N protein as a GST fusion construct) (mouse hepatitis virus (MHV-A59), UniProt P03416 1-454)
T1 sequence: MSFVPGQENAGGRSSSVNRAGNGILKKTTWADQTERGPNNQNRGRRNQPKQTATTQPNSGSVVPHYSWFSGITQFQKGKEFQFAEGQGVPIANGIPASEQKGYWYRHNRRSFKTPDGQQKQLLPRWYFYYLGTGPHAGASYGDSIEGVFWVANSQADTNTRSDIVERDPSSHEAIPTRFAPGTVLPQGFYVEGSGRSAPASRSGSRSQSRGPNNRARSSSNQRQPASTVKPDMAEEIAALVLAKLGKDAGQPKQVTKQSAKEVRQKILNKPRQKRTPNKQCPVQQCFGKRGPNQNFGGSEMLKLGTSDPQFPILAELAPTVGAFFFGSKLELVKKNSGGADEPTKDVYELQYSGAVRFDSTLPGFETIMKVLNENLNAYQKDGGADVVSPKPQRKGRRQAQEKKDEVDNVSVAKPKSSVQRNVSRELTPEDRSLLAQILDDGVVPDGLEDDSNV

T2: 6xHis-tagged N2b-N3 truncation of MHV N protein (mouse hepatitis virus (MHV-A59), UniProt P03416 258-454)
T2 sequence: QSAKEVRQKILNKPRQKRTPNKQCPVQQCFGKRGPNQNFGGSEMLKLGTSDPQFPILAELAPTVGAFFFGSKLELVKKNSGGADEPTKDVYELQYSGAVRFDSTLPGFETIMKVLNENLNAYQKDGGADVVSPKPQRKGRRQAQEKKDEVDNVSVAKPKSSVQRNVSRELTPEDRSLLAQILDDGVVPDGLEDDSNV

B1: 6xHis-tagged full length MHV N protein (natural protein)
chain: T1 sequence
B2: GST-N1 (MHV N protein truncation) (domain or fragment)
chain: MSFVPGQENAGGRSSSVNRAGNGILKKTTWADQTERGPNNQNRGRRNQPKQTATTQPNSGSVVPHYSWFSGITQFQKGKEFQFAEGQGVPIANGIPASEQKGYWYRHNRRSFKTPDGQQKQLLPRWYFYYLGTGPHAGASYGDSIEGVFWVANSQADTNTRSDIVERDPSSHEAIPTRFAPGTVLPQGFYVEGS

What was measured:
[1] = target: T1, GST-N protein (MHV N protein as a GST …); assay: pull-down; settings: one partner purified
[2] = target: T2, 6xHis-tagged N2b-N3 truncation of MHV N …; assay: pull-down; settings: one partner purified

Binder | binding result [1] | binding result [2]
B1 | binds | –
B2 | – | binds
